Results on 1 protein are retold here after paper PMC3299984 (Structure(London, England:1993), 2012).

The data set concerns the molecule itself. In words: SEC. Background: Size exclusion chromatography separates by hydrodynamic size, large species first.

B1: Schistosoma mansoni peroxiredoxin I (thioredoxin peroxidase I), reduced (enzyme)
chain: MVLLPNRPAPEFKGQAVINGEFKEICLKDYRGKYVVLFFYPADFTFVCPTEIIAFSDQVEEFNSRNCQVIACSTDSQYSHLAWDNLDRKSGGLGHMKIPLLADRKQEISKAYGVFDEEDGNAFRGLFIIDPNGILRQITINDKPVGRSVDETLRLLDAFQFVEKHGEVCPVNWKRGQHGIKVNQK
For orientation: stoichiometry N means a count of units in the complex or per binding partner. Take B1: the “stoichiometry N” value came to 10.
